Assay results taken from patent publication US20130210034A1, “COMPLEX PHOSPHOPROTEIN ACTIVATION PROFILES” (BECKMAN COULTER, INC., priority 2005, published 2013).
“And” between values parts separate entries of the source, which are not always exact repeats. Equal entries are not always repeated.

Assays:
Format in all cases: cell-based, human
pERK = assay: Cytokine-stimulated phosphorylation in immunophenotypically defined cell populations from healthy donor BM (flow cytometry); conditions: healthy donor BM, mean ± SD
Method: (§1) Bone marrow (BM) samples were collected in 7.5 mL Iscove's modified Dulbecco's medium (IMDM) supplemented with 100U penicillin, 0.01 mg/mL streptomycin, and 70 μg/mL heparin sodium salt from 10 patients undergoing hip replacement surgery, who were otherwise healthy. These patients were from a pool of surgery patients, age 49 to 77, and represented […] patients. […] These BM samples were rinsed twice with IMDM to release cells, filtered using a 100 μm Nylon cell strainer to remove marrow particles, and centrifuged for at RT fro 7 minutes at 200 g. The cell pellet was washed twice with sterile IMDM to remove traces of fat and re-suspended in IMDM to a concentration of 3×10^7 cells/mL.
(§2) To assess the signal transduction response after growth factor simulation, a series comprising two sets of tubes including about 3×10^6 cells/100 μL were incubated at 37° C. for 30 minutes. After this pre-incubation period, tubes with then processes with either a stimulant or inhibitor. […] To examine the effects of protein phosphorylation inhibition, tubes were incubated with an inhibitor cocktail comprising 100 μM/100 μL UO126, 1 μM/100 μL LY294002, and 1 μM/100 μL rapamycin. One unstimulated tube receiving no stimulant or inhibitor was processed to assess basal levels of phospho-protein expression. After stimulation the cells were immediately fixed in 10% formaldehyde solution at 37° C. Pre-labeling with CD13, CD16 and CD64 antibodies was carried out 20 minutes prior to formaldehyde fixation. After fixation, one set of tubes was permeabilized without methanol for pAKT, pERK and pS6 staining and the other for 80% methanol permeabilized for pSTAT3 and pSTAT5 staining. After permeablization, the cells were washed in PBS with 2% BSA and blocked by re-suspended in 75 μL of PBS comprising 25% heat inactivated normal mouse serum, 25% normal rabbit serum. To stain cells with fluorescent conjugated monoclonal antibodies, samples were incubated on ice for 45 minutes in 100 μL of an antibody staining solution including either: 1) CD15-Pacific Orange, CD34-Phycoerythrin-Texas Red, CD117-Phycoerythrin-Cyanin 5.5, CD45-Allophycocyanin-Alexa Fluor 750 (or CD45-Pacific Orange, in which case CD15-Pacific Orange was omitted), pS6-Pacific Blue, pERK-Alexa Fluor 488 and pAKT-Alexa Fluor 647 or 2) CD15-Pacific Orange, CD34-Phycoerythrin-Texas Red, CD117-Phycoerythrin-Cyanin 5.5, CD45-Allophycocyanin-Alexa Fluor 750 or CD45-Pacific Blue, pSTAT3-Alexa Fluor 488 and pSTAT5-Phycoerythrin. The stained cells were washed twice with ice cold PBS containing 2% BSA and centrifuged at 800 g for 6 minutes at 4° C. The supernatant was discarded and cells re-suspended in 250 μL of chilled wash buffer for data acquisition. Stained cells were examined using either GALIOS flow cytometer (Beckman Coulter) or CYAN ADP (Beckman Coulter) equipped with 488 nm, 405 nm and 635 nm lasers to detect the degree of fluorescence. Data were analyzed using FCS Express (De Novo Software, CA) analysis software.
(§3) Specific phosphoprotein expression of pERK, pS6, pAKT, pSTAT5, and pSTAT3 was examined in seven discrete phenotypically defined populations based on 7-color immunophenotyping (FIG. 1). The percent of responding (phosphorprotein positive) cells for each of these populations was determined from individual single parameter histograms based on a fixed integration region set on the inhibitor treated control at about 3% positives.

pSTAT5 [1] = assay: as above; conditions: for pSTAT5 Percent (%) Responding Cells, Mean / pSTAT5 S/N ratio: healthy donor BM, mean ± SD
Method: as §1, §2, §3

pAKT = assay: as above; conditions: healthy donor BM, mean ± SD
Method: as §1, §2, §3

pS6 = assay: as above; conditions: healthy donor BM, mean ± SD
Method: as §1, §2, §3

pSTAT3 [2] = assay: as above; conditions: for pSTAT3 Percent (%) Responding Cells, Mean / pSTAT3 S/N ratio: healthy donor BM, mean ± SD
Method: as §1, §2, §3

pSTAT5 [3] = assay: Cytokine-stimulated phosphorylation in AML cell populations (BM or PB of AML patients); conditions: patient AML3 (Example 3)
Method: as §2, §3
(§4) Using normal BM signaling profiles of Example 1 as comparison, analysis of 14 AML samples was carried out to identify differences in signaling responses. White blood cells from BM or peripheral blood (PB) samples were obtained from 14 diagnosed AML patients undergoing routine clinical flow cytometry analysis using IRB approved protocols. The AML patients included newly diagnosed AML, AMLs arising in a background of MDS, therapy related AMLs and previously diagnosed AML post therapy. The median age of the patients at diagnosis was 51 years (range: 29-75 years) and represented 5 female and 9 male patients. The median white blood cell was 6.4 million/mL (range: 0.9-106 M/mL) and the BM morphologic blast count was an average of 46% (range: 0%-90%).
(§5) Experiments performed to assess the signal transduction response after growth factor simulation were performed as described for Example 1.

pSTAT3 [4] = assay: as above; conditions: patient AML3 (Example 3)
Method: as §2, §3, §4, §5

lymphocytes = assay: Phosphoprotein modulation in lymphocytes of normal BM (Example 1, internal negative control); conditions: lymphocytes of normal BM (Examples 1-2)
Method: To assess the signal transduction response after growth factor simulation, a series comprising two sets of tubes including about 3×10^6 cells/100 μL were incubated at 37° C. for 30 minutes. After this pre-incubation period, tubes with then processes with either a stimulant or inhibitor. […] To examine the effects of protein phosphorylation inhibition, tubes were incubated with an inhibitor cocktail comprising 100 μM/100 μL UO126, 1 μM/100 μL LY294002, and 1 μM/100 μL rapamycin. One unstimulated tube receiving no stimulant or inhibitor was processed to assess basal levels of phospho-protein expression. After stimulation the cells were immediately fixed in 10% formaldehyde solution at 37° C. […] Stained cells were examined using either GALIOS flow cytometer (Beckman Coulter) or CYAN ADP (Beckman Coulter) equipped with 488 nm, 405 nm and 635 nm lasers to detect the degree of fluorescence. Data were analyzed using FCS Express (De Novo Software, CA) analysis software.
The tables include the mean and the standard deviation of the percent responding cell population as well as the signal/noise (S/N) ratio for the 5 different phosphoproteins in response to the above-mentioned stimuli in each of these populations. […] Lymphocytes thus served as a de facto internal negative control and their median fluorescence intensity (MFI) was used for normalization of the phosphoprotein measurements.

B1: Granulocyte Colony-Stimulating Factor (protein, UniProt P09919 31-207, looked up)
Granulocyte …: TPLGPASSLPQSFLLKCLEQVRKIQGDGAALQEKLVSECATYKLCHPEELVLLGHSLGIPWAPLSSCPSQALQLAGCLSQLHSGLFLYQGLLQALEGISPELGPTLDTLQLDVADFATTIWQQMEELGMAPALQPTQGAMPAFASAFQRRAGGVLVASHLQSFLEVSYRVLRHLAQP
notes: colony-stimulating cytokine
pERK; CD34^+ (CD34^+/CD117^+ cells)
  pERK Percent (%) Responding Cells, Mean: 47.1% and 47.1 ± 12.6%
  pERK S/N ratio: 10.2 and 10.2 ± 2.7
pERK; CD117^+ (CD34^−/CD117^+ cells)
  pERK Percent (%) Responding Cells, Mean: 39.2 ± 13.9%
  pERK S/N ratio: 6.8 ± 2.5
pERK; G1, immature myeloid cells
  pERK Percent (%) Responding Cells, Mean: 22.9% and 22.9 ± 24.1%
  pERK S/N ratio: 4.2 ± 1.6
pERK; G2, intermediate myeloid cells
  pERK Percent (%) Responding Cells, Mean: 55.2 ± 33.1%
  pERK S/N ratio: 5.8 ± 2.4
pERK; G3, mature myeloid cells
  pERK Percent (%) Responding Cells, Mean: 46.0% and 46.0 ± 30.3%
  pERK S/N ratio: 6.2 ± 2.2
pERK; Mono, monocytes
  pERK Percent (%) Responding Cells, Mean: 12.7 ± 8.8%
  pERK S/N ratio: 3.2 ± 1.6
pSTAT5 [1]; CD34^+ (CD34^+/CD117^+ cells)
  pSTAT5 Percent (%) Responding Cells, Mean: 82.6 ± 14.0%
  pSTAT5 S/N ratio: 25.2 and 25.2 ± 13.3
pSTAT5 [1]; CD117^+ (CD34^−/CD117^+ cells)
  pSTAT5 Percent (%) Responding Cells, Mean: 49.8 ± 25.2%
  pSTAT5 S/N ratio: 17.0 ± 11.9
pSTAT5 [1]; G1, immature myeloid cells
  pSTAT5 Percent (%) Responding Cells, Mean: 70.9 ± 26.5%
  pSTAT5 S/N ratio: 8.7 and 8.7 ± 1.9
pSTAT5 [1]; G2, intermediate myeloid cells
  pSTAT5 Percent (%) Responding Cells, Mean: 71.6 ± 22.0%
  pSTAT5 S/N ratio: 9.7 ± 2.3
pSTAT5 [1]; G3, mature myeloid cells
  pSTAT5 Percent (%) Responding Cells, Mean: 71.4 ± 17.7%
  pSTAT5 S/N ratio: 11.7 and 11.7 ± 3.0
pSTAT5 [1]; Mono, monocytes
  pSTAT5 Percent (%) Responding Cells, Mean: 29.5 ± 19.9%
  pSTAT5 S/N ratio: 5.9 ± 2.0
pSTAT5 [1]; Table 7 comparison value, matches percent responding CD34^+ cells of Tables 1-5
  pSTAT5, Normal Sample: 82.6
pAKT; CD34^+ (CD34^+/CD117^+ cells)
  pAKT Percent (%) Responding Cells, Mean: 22.5% and 22.5 ± 18.4%
  pAKT S/N ratio: 6.4 ± 5.9
pAKT; CD117^+ (CD34^−/CD117^+ cells)
  pAKT Percent (%) Responding Cells, Mean: 16.6 ± 19.8%
  pAKT S/N ratio: 2.7 ± 1.8
pAKT; G1, immature myeloid cells
  pAKT Percent (%) Responding Cells, Mean: 5.3 ± 10.9%
  pAKT S/N ratio: 2.5 ± 1.5
pAKT; G2, intermediate myeloid cells
  pAKT Percent (%) Responding Cells, Mean: 4.1 ± 3.3%
  pAKT S/N ratio: 2.5 ± 1.2
pAKT; G3, mature myeloid cells
  pAKT Percent (%) Responding Cells, Mean: 4.4 ± 3.1%
  pAKT S/N ratio: 2.8 ± 1.4
pAKT; Mono, monocytes
  pAKT Percent (%) Responding Cells, Mean: 4.1 ± 4.9%
  pAKT S/N ratio: 2.6 ± 1.2
pS6; CD34^+ (CD34^+/CD117^+ cells)
  pS6 Percent (%) Responding Cells, Mean: 52% and 52.0 ± 34.2%
  pS6 S/N ratio: 30.7 ± 25.2
pS6; CD117^+ (CD34^−/CD117^+ cells)
  pS6 Percent (%) Responding Cells, Mean: 41.5 ± 26.5%
  pS6 S/N ratio: 12.9 ± 10.1
pS6; G1, immature myeloid cells
  pS6 Percent (%) Responding Cells, Mean: 2.7 ± 1.9%
  pS6 S/N ratio: 4.0 ± 2.3
pS6; G2, intermediate myeloid cells
  pS6 Percent (%) Responding Cells, Mean: 2.9 ± 2.3%
  pS6 S/N ratio: 3.7 ± 2.1
pS6; G3, mature myeloid cells
  pS6 Percent (%) Responding Cells, Mean: 4.2 ± 3.0%
  pS6 S/N ratio: 4.0 ± 2.4
pS6; Mono, monocytes
  pS6 Percent (%) Responding Cells, Mean: 42.2% and 42.2 ± 30.2%
  pS6 S/N ratio: 17.2 ± 16.8
pSTAT3 [2]; CD34^+ (CD34^+/CD117^+ cells)
  pSTAT3 Percent (%) Responding Cells, Mean: 77.8 ± 19.1%
  pSTAT3 S/N ratio: 9.8 ± 3.0
pSTAT3 [2]; CD117^+ (CD34^−/CD117^+ cells)
  pSTAT3 Percent (%) Responding Cells, Mean: 46.2 ± 26.8%
  pSTAT3 S/N ratio: 9.9 ± 4.6
pSTAT3 [2]; G1, immature myeloid cells
  pSTAT3 Percent (%) Responding Cells, Mean: 91.2 ± 20.4%
  pSTAT3 S/N ratio: 13.3 ± 4.8
pSTAT3 [2]; G2, intermediate myeloid cells
  pSTAT3 Percent (%) Responding Cells, Mean: 91.3 ± 19.3%
  pSTAT3 S/N ratio: 13.3 ± 5.1
pSTAT3 [2]; G3, mature myeloid cells
  pSTAT3 Percent (%) Responding Cells, Mean: 89.2 ± 24.9%
  pSTAT3 S/N ratio: 14.0 ± 5.5
pSTAT3 [2]; Mono, monocytes
  pSTAT3 Percent (%) Responding Cells, Mean: 27.8 ± 31.8%
  pSTAT3 S/N ratio: 6.1 ± 2.7
pSTAT3 [2]; Table 7 comparison value, matches percent responding CD34^+ cells of Table 5
  pSTAT3, Normal Sample: 77.8
pSTAT5 [3]
  pSTAT5, AML Sample: 8.3
pSTAT3 [4]
  pSTAT3, AML Sample: 7.0
lymphocytes
  Modulation of phosphoprotein epitopes (pERK, pS6, pAKT, pSTAT3 or pSTAT5) in lymphocytes: no response
